The results in this text go back to paper doi:10.1101/580712.

This experiment addresses human Macrophage Expressed Gene-1 (MPEG-1) soluble ectodomain, wild type (human) (UniProt Q2M385). The experiment is described as follows: cryo-EM structure.

For the substance “human Macrophage Expressed Gene-1 (MPEG-1) soluble ectodomain, wild type (from UniProt Q2M385 17-653) (domain or fragment)”, the stoichiometry N (subunits per ring) was determined as 16.
